The results in this text go back to patent publication US20220289833A1 (BIOSION, published 2022).

Assay [1] addresses T1, Recombinant human TSLP-his (human, UniProt Q969D9 29-159).
T1 construct: Prepared in-house; Amine-coupled to CM5 chip in SPR, loaded on APS sensors in Octet, biotin-labeled in the capture ELISA, unlabeled in the cell functional assays; also called human TSLP-his protein
Description: SPR, BIAcore; protocol of Example 2. (In SPR one partner is held on a chip, and binding of the other changes the refractive index at the surface.)

The target in assay [2] is T2, Recombinant cynomolgus monkey TSLP-his (cynomolgus monkey).
T2 construct: Prepared in-house; Amine-coupled to CM5 chip in SPR, coated on plates in the indirect ELISA; also called cynomolgus TSLP; cynomolgus TSLP-his protein
T2 chain: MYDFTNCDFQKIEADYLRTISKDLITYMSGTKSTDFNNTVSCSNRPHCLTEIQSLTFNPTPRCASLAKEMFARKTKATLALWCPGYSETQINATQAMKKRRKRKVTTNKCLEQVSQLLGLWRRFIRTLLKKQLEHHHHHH
The assay can be described thus: SPR, BIAcore; protocol of Example 2.

In assay [3] the target is T2, Recombinant cynomolgus monkey TSLP-his. The assay can be described thus: indirect ELISA on coated cynomolgus TSLP-his.
The target is the same in assay [4]. The assay can be described thus: indirect ELISA on coated cynomolgus TSLP-his.
For assay [5], the target named is T1, Recombinant human TSLP-his. The assay can be described thus: BLI, Octet; TSLP-his loaded on APS biosensor, antibody in solution; 1:1 Langmuir fit. For orientation: BLI is a label-free optical method that tracks binding on a fibre tip over time.
In assay [6] the target is T1, Recombinant human TSLP-his. Description: SPR, Biacore T200; TSLP-his amine-coupled to CM5 chip, antibody as analyte; 1:1 Langmuir fit.
Assay [7] deals with T3, human TSLP-Fc (human, biotin-labeled).
T3 construct: Prepared in-house; also called biotin-labeled human TSLP-Fc; TSLP-Fc-biotin
Description: competitive ELISA: antibody pre-mixed with biotin-labeled human TSLP-Fc; blocked binding to coated Tezepelumab. In general terms: In an ELISA, binding on a coated surface is turned into a signal by an enzyme label.

Assay [8] deals with T3, human TSLP-Fc. The assay is described as above. This is another data set of the same source.
Assay [9] deals with T3, human TSLP-Fc. Described as above. This is another data set of the same source.
Assay [10] deals with T1, Recombinant human TSLP-his. The assay can be described thus: capture ELISA: antibody captured on anti-IgG Fc coat, biotin-labeled human TSLP-his detected with streptavidin-HRP.
In assay [11] the target is T1, Recombinant human TSLP-his. The description is as above. The source holds these as a separate data set.
The target of assay [12] is T1, Recombinant human TSLP-his. The description is as above. This is another data set of the same source.
The target of assay [13] is T1, Recombinant human TSLP-his. The description is as above. The source holds these as a separate data set.
In assay [14] the target is T3, human TSLP-Fc. The assay can be described thus: competitive ELISA: antibody pre-mixed with biotin-labeled human TSLP-Fc; blocked binding to coated human TSLPR-Fc/IL7Ra-Fc.
Assay [15] deals with T3, human TSLP-Fc. Described as above. The source holds these as a separate data set.
Assay [16] has as its target T3, human TSLP-Fc. The description is as above. The source holds these as a separate data set.
In assay [17] the target is T3, human TSLP-Fc. Description: cell-based ligand-blocking FACS: antibody pre-mixed with human TSLP-Fc; blocked binding to BAF3-3E6 cells expressing human TSLPR and IL7R.
Assay [18] has as its target T3, human TSLP-Fc. The assay is described as above. The source holds these as a separate data set.
Assay [19] has as its target T3, human TSLP-Fc. Described as above. The source holds these as a separate data set.
In assay [20] the target is T3, human TSLP-Fc. The assay is described as above. This is another data set of the same source.
Assay [21] has as its target T2, Recombinant cynomolgus monkey TSLP-his. The assay can be described thus: indirect ELISA on coated cynomolgus TSLP-his; the row head of the drawn table reads IC50 although the curve rises (EC50 values were reported).
The target of assay [22] is T1, Recombinant human TSLP-his. Description: SPR, Biacore T200; protocol of Example 2.
Assay [23] addresses T2, Recombinant cynomolgus monkey TSLP-his. The assay can be described thus: SPR, Biacore T200; cynomolgus TSLP-his amine-coupled to CM5 chip, antibody as analyte; 1:1 Langmuir fit.
Assay [24] addresses T3, human TSLP-Fc. The assay can be described thus: competitive ELISA: antibody pre-mixed with biotin-labeled human TSLP-Fc; blocked binding to coated Tezepelumab. The source holds these as a separate data set.
The target in assay [25] is T3, human TSLP-Fc. The assay can be described thus: competitive ELISA: antibody pre-mixed with biotin-labeled human TSLP-Fc; blocked binding to coated human TSLPR-Fc/IL7Ra-Fc. This is another data set of the same source.
The target of assay [26] is T3, human TSLP-Fc. Description: cell-based ligand-blocking FACS: antibody pre-mixed with human TSLP-Fc; blocked binding to BAF3-3E6 cells expressing human TSLPR and IL7R; lower plateau at MFI about 550 (partial blocking).
The target of assay [27] is T2, Recombinant cynomolgus monkey TSLP-his. Description: SPR, Biacore T200; cynomolgus TSLP-his amine-coupled to CM5 chip, antibody as analyte.

In general, Kd refers to the concentration at which binding is half-saturated. As a reminder, the koff is the rate constant with which the complex falls apart. Usually kon stands for a measure of how fast the partners come together. The term EC50 denotes the concentration that produces a half-maximal response. The term IC50 denotes the concentration that gives 50% inhibition.

Like-named read-outs stand apart in the source and are kept apart here.

B1: mouse 1C5F12E9 (antibody, V domains shown)
VH: QVQLQQPGTELVKPGASVKMSCKASGYTFTTYWMHWVKQRPGQGLEWIGVIDPSDSDTTYNQKFKGKATLTVDTSSSTAYMQLSSLTSEDSAVYYCTRSLDGYYDYWGQGTTLTVSS
VL: DIQMTQSPASLSASVGETVTITCRPTENIYSYLAWYQQKQGKSPHLLVYFARTLAEGVPSRFSGSGSGTQFSLKINSLQPEDFGIYYCQHHYGTPWTFGGGTKLEIK
notes: also called mouse anti-TSLP 1C5F12E9 antibody
Take B1: the Kd in [1] was below 0.0966 nM; in [2] it was below 0.0346 nM; in [5], 0.226 nM; in [6], below 0.11 nM. In addition, the koff in assay [1] is below 1e-05 s⁻¹; in [2], below 1e-05 s⁻¹; in [5] it was 0.000135 s⁻¹; in assay [6], below 1e-05 s⁻¹. Further, the kon was determined as 104000 M⁻¹ s⁻¹ in [1], 289000 M⁻¹ s⁻¹ in assay [2], 600000 M⁻¹ s⁻¹ in assay [5] and 91100 M⁻¹ s⁻¹ in assay [6]. Moreover, the EC50 came out at 0.101 nM in assay [3]; 0.202 nM in assay [4]; 0.36 nM in [10]; 0.16 nM in assay [11]; 0.146 nM in [12]; 0.151 nM in [13]. Also, the EC50 in assay [21] was found to be 0.407 nM. Further, the IC50 in assay [7] is 0.15 nM; in assay [8] it was 0.262 nM; in assay [9], 0.366 nM; in assay [14] it was 0.694 nM; in [15] it was 0.391 nM; in assay [16] it was 0.139 nM. Also, the IC50 in assay [17] stood at 0.514 nM; in [18], 0.625 nM; in assay [19], 1.63 nM; in assay [20] it was 2.41 nM.

B2: Chimeric 1C5F12E9 (antibody, human IgG1, kappa, V domains shown)
VH: B1 VH
VL: DIQMTQSPASLSASVGETVTITCRPTENIYSYLAWYQQKQGKSPHLLVYFARTLAEGVPSRFSGSGSGTQFSLKINSLQPEDFGIYYCQHHYGTPWTFGGGTKLEIKR
notes: Human IgG1/kappa chimera expressed in 293F cells; also called chimeric 1C5F12E9 antibody
For the molecule B2, the Kd in assay [1] was below 0.0517 nM; in assay [2] it was below 0.0261 nM; in [22], 0.914 nM; in [5] it was 0.222 nM. In addition, the koff in assay [1] was below 1e-05 s⁻¹; in [2], below 1e-05 s⁻¹; in [22], 6.36e-05 s⁻¹; in [5], 0.000159 s⁻¹. The kon in [1] is 193000 M⁻¹ s⁻¹; in assay [2], 383000 M⁻¹ s⁻¹; in assay [22] it was 69600 M⁻¹ s⁻¹; in assay [5], 715000 M⁻¹ s⁻¹. The figures for the EC50 in assay [4], in assay [10] and in assay [13] were 0.0918 nM, 0.448 nM and 0.161 nM, respectively. For the same molecule, the IC50 in assay [9] was 0.291 nM; in assay [16], 0.1 nM; in assay [17], 0.627 nM; in assay [20], around 3.12 nM.

B3: Tezepelumab (antibody, human IgG2, lambda, V domains shown)
VH: QMQLVESGGGVVQPGRSLRLSCAASGFTFRTYGMHWVRQAPGKGLEWVAVIWYDGSNKHYADSVKGRFTITRDNSKNTLNLQMNSLRAEDTAVYYCARAPQWELVHEAFDIWGQGTMVTVSS
VL: SYVLTQPPSVSVAPGQTARITCGGNNLGSKSVHWYQQKPGQAPVLVVYDDSDRPSWIPERFSGSNSGNTATLTISRGEAGDEADYYCQVWDSSSDHVVFGGGTKLTVLG
notes: also called TSLP-BM; benchmark
For the molecule B3, the Kd in assay [2] is 0.0672 nM; in assay [23], 0.0733 nM. For the same molecule, the concentration for a half-maximal effect (EC50) in assay [3] was 0.127 nM; in assay [4], 0.105 nM. Besides, the IC50 in assay [7] turned out to be 0.18 nM; in assay [8], 0.495 nM; in assay [9] it was 0.486 nM; in assay [24], 5.79 nM; in assay [14] it was 0.99 nM; in [15] it was 0.506 nM. Moreover, the IC50 worked out at 0.0777 nM in assay [16]; 6.27 nM in assay [25]; 0.728 nM in [17]; 0.759 nM in [18]; 1.48 nM in [19]; 1.45 nM in [20].

B4: Mouse D1D8H9F7 (antibody, V domains shown)
VH: QVQLQQSGADLVRPGSSVKISCKTSGFAFSSYYMNWVKQRPGQGLEWIGQIYPGDGETNYNGKFKDKATLTADKSSSTVYMQLSSLTSEDSAVYFCARAGYSDYVYAMDYWGQGTSVTVSS
VL: EIVLTQSPALMAASPGEKVTIICSVSSSITSSNLHWYQQKSETSPKPWIYGTSNLASGVPVRFSGSGSGTSYSLTISSMEAEDAATYYCQQWSSFPLTFGSGTKLEIK
notes: Mouse hybridoma mAb
For the molecule B4, the binding result in assay [3] is on record as “no binding (tested: about 67 nM)”. Besides, in assay [6], the Kd was found to be 0.18 nM, the koff is 3.09e-05 s⁻¹ and the kon is 172000 M⁻¹ s⁻¹. In addition, the 50% effective concentration (EC50) in assay [12] turned out to be 0.126 nM. In addition, the IC50 in assay [15] turned out to be 0.5 nM. Also, the IC50 in [26] was 1.83 nM.

B5: Mouse D1C2H1H1 (antibody, V domains shown)
VH: QVTLKESGPGILQPSQTLSLTCSFSGFSLSTYGMGIGWIRLPSGKGLEWLASIWWDDNRYFNAALKSRLTISKDASKNQVFLKIASVDTADTATYYCARIEDGYYSYHSYWGQGTLVTVSA
VL: DIVLTQSPASLAVSLGQRATISCKASQSVDFDGDSYMNWFQQKPGQPPKLLIYAASNLVSGIPARFSGSGSGTDFTLNIHPVEEEDAATYYCQQIDEDPYTFGGGTKLEIE
notes: Mouse hybridoma mAb
Regarding B5, the EC50 came to 4.18 nM in assay [3] and 0.17 nM in [12]. Besides, the Kd in assay [27] was 7.23 nM; in [6], below 0.0149 nM. Also, the koff in assay [6] was below 1e-05 s⁻¹. In [6], the kon is 672000 M⁻¹ s⁻¹. For the same molecule, the IC50 is 0.12 nM in assay [8], 0.114 nM in assay [15] and 2.14 nM in [19].
